{
  "source": "IntAct's records for PubMed 11230129",
  "parents": {"B1": {"name": "CBL-interacting serine/threonine-protein kinase 1 (Arabidopsis thaliana (Mouse-ear cress)), Q8RWC9 (parent)", "chain": "MVRRQEEEKKAEKGMRLGKYELGRTLGEGNFGKVKFAKDTVSGHSFAVKIIDKSRIADLNFSLQIKREIRTLKMLKHPHIVRLHEVLASKTKINMVMELVTGGELFDRIVSNGKLTETDGRKMFQQLIDGISYCHSKGVFHRDLKLENVLLDAKGHIKITDFGLSALPQHFRDDGLLHTTCGSPNYVAPEVLANRGYDGAASDIWSCGVILYVILTGCLPFDDRNLAVLYQKICKGDPPIPRWLSPGARTMIKRMLDPNPVTRITVVGIKASEWFKLEYIPSIPDDDDEEEVDTDDDAFSIQELGSEEGKGSDSPTIINAFQLIGMSSFLDLSGFFEQENVSERRIRFTSNSSAKDLLEKIETAVTEMGFSVQKKHAKLRVKQEERNQKGQVGLSVTAEVFEIKPSLNVVELRKSYGDSCLYRQLYERLLKDVGTSSPEQEIVT"}},
  "data": [
    {"variants_of": "B1", "settings": "with cnbl2_arath CBL2, Q8LAS7", "values": [
      {"variant": "MVRRQEEEKKAEKGMRLGKYELGRTLGEGNFGKVKFAKDTVSGHSFAVKIIDKSRIADLNFSLQIKREIRTLKMLKHPHIVRLHEVLASKTKINMVMELVTGGELFDRIVSNGKLTETDGRKMFQQLIDGISYCHSKGVFHRDLKLENVLLDAKGHIKITDFGLSALPQHFRDDGLLHTTCGSPNYVAPEVLANRGYDGAASDIWSCGVILYVILTGCLPFDDRNLAVLYQKICKGDPPIPRWLSPGARTMIKRMLDPNPVTRITVVGIKASEWFKLEYIPSIPDDDDEEEVDTDDDAFSIQELGSEEGKGSDSATIINAFQLIGMSSFLDLSGFFEQENVSERRIRFTSNSSAKDLLEKIETAVTEMGFSVQKKHAKLRVKQEERNQKGQVGLSVTAEVFEIKPSLNVVELRKSYGDSCLYRQLYERLLKDVGTSSPEQEIVT", "note": "[P315A]", "effect of a mutation on the interaction": "decreasing interaction"},
      {"variant": "MVRRQEEEKKAEKGMRLGKYELGRTLGEGNFGKVKFAKDTVSGHSFAVKIIDKSRIADLNFSLQIKREIRTLKMLKHPHIVRLHEVLASKTKINMVMELVTGGELFDRIVSNGKLTETDGRKMFQQLIDGISYCHSKGVFHRDLKLENVLLDAKGHIKITDFGLSALPQHFRDDGLLHTTCGSPNYVAPEVLANRGYDGAASDIWSCGVILYVILTGCLPFDDRNLAVLYQKICKGDPPIPRWLSPGARTMIKRMLDPNPVTRITVVGIKASEWFKLEYIPSIPDDDDEEEVDTDDDAFSIQELGSEEGKGSDSPTIINPFQLIGMSSFLDLSGFFEQENVSERRIRFTSNSSAKDLLEKIETAVTEMGFSVQKKHAKLRVKQEERNQKGQVGLSVTAEVFEIKPSLNVVELRKSYGDSCLYRQLYERLLKDVGTSSPEQEIVT", "note": "[A320P]", "effect of a mutation on the interaction": "disrupting interaction"},
      {"variant": "MVRRQEEEKKAEKGMRLGKYELGRTLGEGNFGKVKFAKDTVSGHSFAVKIIDKSRIADLNFSLQIKREIRTLKMLKHPHIVRLHEVLASKTKINMVMELVTGGELFDRIVSNGKLTETDGRKMFQQLIDGISYCHSKGVFHRDLKLENVLLDAKGHIKITDFGLSALPQHFRDDGLLHTTCGSPNYVAPEVLANRGYDGAASDIWSCGVILYVILTGCLPFDDRNLAVLYQKICKGDPPIPRWLSPGARTMIKRMLDPNPVTRITVVGIKASEWFKLEYIPSIPDDDDEEEVDTDDDAFSIQELGSEEGKGSDSPTIINAFQLDGMSSFLDLSGFFEQENVSERRIRFTSNSSAKDLLEKIETAVTEMGFSVQKKHAKLRVKQEERNQKGQVGLSVTAEVFEIKPSLNVVELRKSYGDSCLYRQLYERLLKDVGTSSPEQEIVT", "note": "[I324D]", "effect of a mutation on the interaction": "decreasing interaction"},
      {"variant": "MVRRQEEEKKAEKGMRLGKYELGRTLGEGNFGKVKFAKDTVSGHSFAVKIIDKSRIADLNFSLQIKREIRTLKMLKHPHIVRLHEVLASKTKINMVMELVTGGELFDRIVSNGKLTETDGRKMFQQLIDGISYCHSKGVFHRDLKLENVLLDAKGHIKITDFGLSALPQHFRDDGLLHTTCGSPNYVAPEVLANRGYDGAASDIWSCGVILYVILTGCLPFDDRNLAVLYQKICKGDPPIPRWLSPGARTMIKRMLDPNPVTRITVVGIKASEWFKLEYIPSIPDDDDEEEVDTDDDAFSIQELGSEEGKGSDSPTIINAFQLIGMLSFLDLSGFFEQENVSERRIRFTSNSSAKDLLEKIETAVTEMGFSVQKKHAKLRVKQEERNQKGQVGLSVTAEVFEIKPSLNVVELRKSYGDSCLYRQLYERLLKDVGTSSPEQEIVT", "note": "[S327L]", "effect of a mutation on the interaction": "decreasing interaction"},
      {"variant": "MVRRQEEEKKAEKGMRLGKYELGRTLGEGNFGKVKFAKDTVSGHSFAVKIIDKSRIADLNFSLQIKREIRTLKMLKHPHIVRLHEVLASKTKINMVMELVTGGELFDRIVSNGKLTETDGRKMFQQLIDGISYCHSKGVFHRDLKLENVLLDAKGHIKITDFGLSALPQHFRDDGLLHTTCGSPNYVAPEVLANRGYDGAASDIWSCGVILYVILTGCLPFDDRNLAVLYQKICKGDPPIPRWLSPGARTMIKRMLDPNPVTRITVVGIKASEWFKLEYIPSIPDDDDEEEVDTDDDAFSIQELGSEEGKGSDSPTIINAFQLIGMSSFLDDSGFFEQENVSERRIRFTSNSSAKDLLEKIETAVTEMGFSVQKKHAKLRVKQEERNQKGQVGLSVTAEVFEIKPSLNVVELRKSYGDSCLYRQLYERLLKDVGTSSPEQEIVT", "note": "[L332D]", "effect of a mutation on the interaction": "disrupting interaction"},
      {"variant": "MVRRQEEEKKAEKGMRLGKYELGRTLGEGNFGKVKFAKDTVSGHSFAVKIIDKSRIADLNFSLQIKREIRTLKMLKHPHIVRLHEVLASKTKINMVMELVTGGELFDRIVSNGKLTETDGRKMFQQLIDGISYCHSKGVFHRDLKLENVLLDAKGHIKITDFGLSALPQHFRDDGLLHTTCGSPNYVAPEVLANRGYDGAASDIWSCGVILYVILTGCLPFDDRNLAVLYQKICKGDPPIPRWLSPGARTMIKRMLDPNPVTRITVVGIKASEWFKLEYIPSIPDDDDEEEVDTDDDAFSIQELGSEEGKGSDSPTIINAFQLIGMSSFLDLSGPFEQENVSERRIRFTSNSSAKDLLEKIETAVTEMGFSVQKKHAKLRVKQEERNQKGQVGLSVTAEVFEIKPSLNVVELRKSYGDSCLYRQLYERLLKDVGTSSPEQEIVT", "note": "[F335P]", "effect of a mutation on the interaction": "disrupting interaction"}
    ]}
  ]
}
